Reference: PMC3351170 (Nucleic Acids Research, 2012)

Legend:
SEC [1] = target: the molecule itself; assay: SEC
AUC = target: the molecule itself; assay: AUC
SEC [2] = target: the molecule itself; assay: SEC; remark: listed apart in the source

B1: SATB1 EFH-AAA mutant, full length (natural protein, mouse, UniProt Q60611 1-764, looked up)
chain: MDHLNEATQGKEHSEMSNNVSDPKGPPAKIARLEQNGSPLGRGRLGSTGGKMQGVPLKHSGHLMKTNLRKGTMLPVFCVVEHYENAIEYDCKEEHAAAVLVRKDMLFNQLIEMALLSLGYSHSSAAQAKGLIQVGKWNPVPLSYVTDAPDATVADMLQDVYAVVTLKIQLHSCPKLEDLPPEQWSHTTVRNALKDLLKDMNQSSLAKECPLSQSMISSIVNSTYYANVSAAKCQEFGRWYKHFKKTKDMMVEMDSLSELSQQGANHVNFGQQPVPGNTAEQPPSPAQLSHGSQPSVRTPLPNLHPGLVSTPISPQLVNQQLVMAQLLNQQYAVNRLLAQQSLNQQYLNHPPPVSRSMNKPLEQQVSTNTEVSSEIYQWVRDELKRAGISQAVFARVAFNRTQGLLSEILRKEEDPKTASQSLLVNLRAMQNFLQLPEAERDRIYQDERERSLNAASAMGPAPLLSTPPSRPPQVKTATLATERNGKPENNTMNINASIYDEIQQEMKRAKVSQALFAKVAATKSQGWLCELLRWKEDPSPENRTLWENLSMIRRFLSLPQPERDAIYEQESNAVHHHGDRPPHIIHVPAEQIQQQQQQQQQQQQQQQPPPPPPQPQPQPQAGPRLPPRQPTVASSAESDEENRQKTRPRTKISVEALGILQSFIQDVGLYPDEEAIQTLSAQLDLPKYTIIKFFQNQRYYLKHHGKLKDNSGLEVDVAEYKDEELLKDLEESVQDKNANTLFSVKLEEELSVEGSTDVNADLKD
- binding result (SEC [1]): binds

B2: SATB1 KWN-AAA mutant, full length (natural protein, mouse, UniProt Q60611 1-764, looked up)
chain: MDHLNEATQGKEHSEMSNNVSDPKGPPAKIARLEQNGSPLGRGRLGSTGGKMQGVPLKHSGHLMKTNLRKGTMLPVFCVVEHYENAIEYDCKEEHAEFVLVRKDMLFNQLIEMALLSLGYSHSSAAQAKGLIQVGAAAPVPLSYVTDAPDATVADMLQDVYHVVTLKIQLHSCPKLEDLPPEQWSHTTVRNALKDLLKDMNQSSLAKECPLSQSMISSIVNSTYYANVSAAKCQEFGRWYKHFKKTKDMMVEMDSLSELSQQGANHVNFGQQPVPGNTAEQPPSPAQLSHGSQPSVRTPLPNLHPGLVSTPISPQLVNQQLVMAQLLNQQYAVNRLLAQQSLNQQYLNHPPPVSRSMNKPLEQQVSTNTEVSSEIYQWVRDELKRAGISQAVFARVAFNRTQGLLSEILRKEEDPKTASQSLLVNLRAMQNFLQLPEAERDRIYQDERERSLNAASAMGPAPLLSTPPSRPPQVKTATLATERNGKPENNTMNINASIYDEIQQEMKRAKVSQALFAKVAATKSQGWLCELLRWKEDPSPENRTLWENLSMIRRFLSLPQPERDAIYEQESNAVHHHGDRPPHIIHVPAEQIQQQQQQQQQQQQQQQPPPPPPQPQPQPQAGPRLPPRQPTVASSAESDEENRQKTRPRTKISVEALGILQSFIQDVGLYPDEEAIQTLSAQLDLPKYTIIKFFQNQRYYLKHHGKLKDNSGLEVDVAEYKDEELLKDLEESVQDKNANTLFSVKLEEELSVEGSTDVNADLKD
- stoichiometry N (AUC): 2

B3: SATB1 ubiquitin-like domain (ULD), residues 71-172 (domain or fragment, mouse, UniProt Q60611 71-172, looked up)
chain: GTMLPVFCVVEHYENAIEYDCKEEHAEFVLVRKDMLFNQLIEMALLSLGYSHSSAAQAKGLIQVGKWNPVPLSYVTDAPDATVADMLQDVYHVVTLKIQLHS
- stoichiometry N (SEC [2]): 4
